Measurements taken from patent US20260242735A1 (UNIVERSIT T BASEL, published 2026).

Tests used:
Test in all cases: alanine scan, flow cytometry, HEK293-T;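 note: antibody binding to each alanine-substituted CD33 mutant expressed transiently in HEK293-T, read as fluorescence minus background, mean of duplicates, relative to wild-type CD33 set as 100%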
human CD33 G58A = human CD33 G58A (human, UniProt P20138 18-364)
Experimental: (§1) An alanine scan on human CD33 was performed to the determine the residues on CD33 that are involved in binding to the antibodies investigated. […] Briefly, a mutation library of CD33 was created by high-throughput, site-directed mutagenesis. Each residue was individually mutated to alanine, with alanine codons mutated to serine. The mutant library was arrayed in 384-well microplates and transiently transfected into HEK293-T. Following transfection, cells were incubated with the indicated antibodies (IgG or Fab) at concentrations pre-determined using an independent immunofluorescence titration curve on wild type CD33. […] Binding of each antibody to each mutant clone was determined in duplicates. For each point, background fluorescence was subtracted from the raw data, which were then normalized to antibody reactivity with wild type CD33.
(§2) Critical residues for antibody binding (outlined in dark grey) were residues whose mutations led to a binding of the test Abs of less than 20%. Additional secondary residues (outlined in light grey) were identified that led to a binding of the test Abs of between 20 and 40% as compared to the wild type CD33.

human CD33 Y59A = human CD33 Y59A (human, UniProt P20138 18-364)
Experimental: as §1, §2

human CD33 E63A = human CD33 E63A (human, UniProt P20138 18-364)
Sequence of human CD33 E63A (P20138 18-364 E63A limits assumed): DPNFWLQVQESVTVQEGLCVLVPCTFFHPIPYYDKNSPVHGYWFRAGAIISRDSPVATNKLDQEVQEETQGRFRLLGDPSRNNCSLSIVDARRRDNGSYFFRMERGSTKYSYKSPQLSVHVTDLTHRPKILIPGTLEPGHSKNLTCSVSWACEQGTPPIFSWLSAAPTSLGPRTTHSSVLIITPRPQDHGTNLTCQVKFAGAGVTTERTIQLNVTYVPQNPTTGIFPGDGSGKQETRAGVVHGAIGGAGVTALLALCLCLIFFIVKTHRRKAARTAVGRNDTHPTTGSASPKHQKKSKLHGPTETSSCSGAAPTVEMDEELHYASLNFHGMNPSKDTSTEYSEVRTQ
Experimental: as §1, §2

human CD33 A65S = human CD33 A65S (human, UniProt P20138 18-364)
Sequence of human CD33 A65S (P20138 18-364 A65S limits assumed): as the sequence (P20138 18-364 E63A limits assumed) above, with A46E, A48S counted along it
Experimental: as §1, §2

human CD33 I67A = human CD33 I67A (human, UniProt P20138 18-364)
Sequence of human CD33 I67A (P20138 18-364 I67A limits assumed): as the sequence (P20138 18-364 E63A limits assumed) above, with A46E, I50A counted along it
Experimental: as §1, §2

human CD33 R69A = human CD33 R69A (human, UniProt P20138 18-364)
Sequence of human CD33 R69A (P20138 18-364 R69A limits assumed): as the sequence (P20138 18-364 E63A limits assumed) above, with A46E, R52A counted along it
Experimental: as §1, §2

human CD33 A74S = human CD33 A74S (human, UniProt P20138 18-364)
Sequence of human CD33 A74S (P20138 18-364 A74S limits assumed): as the sequence (P20138 18-364 E63A limits assumed) above, with A46E, A57S counted along it
Experimental: as §1, §2

human CD33 L92A = human CD33 L92A (human, UniProt P20138 18-364)
Sequence of human CD33 L92A (P20138 18-364 L92A limits assumed): as the sequence (P20138 18-364 E63A limits assumed) above, with A46E, L75A counted along it
Experimental: as §1, §2

human CD33 P96A = human CD33 P96A (human, UniProt P20138 18-364)
Sequence of human CD33 P96A (P20138 18-364 P96A limits assumed): as the sequence (P20138 18-364 E63A limits assumed) above, with A46E, P79A counted along it
Experimental: as §1, §2

human CD33 R98A = human CD33 R98A (human, UniProt P20138 18-364)
Sequence of human CD33 R98A (P20138 18-364 R98A limits assumed): as the sequence (P20138 18-364 E63A limits assumed) above, with A46E, R81A counted along it
Experimental: as §1, §2

human CD33 V106A = human CD33 V106A (human, UniProt P20138 18-364)
Sequence of human CD33 V106A (P20138 18-364 V106A limits assumed): as the sequence (P20138 18-364 E63A limits assumed) above, with A46E, V89A counted along it
Experimental: as §1, §2

human CD33 I47A = human CD33 I47A (human, UniProt P20138 18-364)
Sequence of human CD33 I47A (P20138 18-364 I47A limits assumed): as the sequence (P20138 18-364 E63A limits assumed) above, with I30A, A46E counted along it
Experimental: as §1, §2

human CD33 R111A = human CD33 R111A (human, UniProt P20138 18-364)
Sequence of human CD33 R111A (P20138 18-364 R111A limits assumed): as the sequence (P20138 18-364 E63A limits assumed) above, with A46E, R94A counted along it
Experimental: as §1, §2

human CD33 Y116A = human CD33 Y116A (human, UniProt P20138 18-364)
Sequence of human CD33 Y116A (P20138 18-364 Y116A limits assumed): as the sequence (P20138 18-364 E63A limits assumed) above, with A46E, Y99A counted along it
Experimental: as §1, §2

human CD33 F118A = human CD33 F118A (human, UniProt P20138 18-364)
Sequence of human CD33 F118A (P20138 18-364 F118A limits assumed): as the sequence (P20138 18-364 E63A limits assumed) above, with A46E, F101A counted along it
Experimental: as §1, §2

human CD33 Y127A = target: T1, human CD33 Y127A (human, UniProt P20138 18-364)
T1 construct: alanine scan clone, transfected HEK293-T
T1 sequence (P20138 18-364 Y127A limits assumed): as the sequence (P20138 18-364 E63A limits assumed) above, with A46E, Y110A counted along it
Experimental: as §1, §2

human CD33 K130A = target: T2, human CD33 K130A (human, UniProt P20138 18-364)
T2 construct: alanine scan clone, transfected HEK293-T
T2 sequence (P20138 18-364 K130A limits assumed): as the sequence (P20138 18-364 E63A limits assumed) above, with A46E, K113A counted along it
Experimental: as §1, §2

human CD33 S131A = target: T3, human CD33 S131A (human, UniProt P20138 18-364)
T3 construct: alanine scan clone, transfected HEK293-T
T3 sequence (P20138 18-364 S131A limits assumed): as the sequence (P20138 18-364 E63A limits assumed) above, with A46E, S114A counted along it
Experimental: as §1, §2

human CD33 L141A = target: T4, human CD33 L141A (human, UniProt P20138 18-364)
T4 construct: alanine scan clone, transfected HEK293-T
T4 sequence (P20138 18-364 L141A limits assumed): as the sequence (P20138 18-364 E63A limits assumed) above, with A46E, L124A counted along it
Experimental: as §1, §2

human CD33 T142A = target: T5, human CD33 T142A (human, UniProt P20138 18-364)
T5 construct: alanine scan clone, transfected HEK293-T
T5 sequence (P20138 18-364 T142A limits assumed): as the sequence (P20138 18-364 E63A limits assumed) above, with A46E, T125A counted along it
Experimental: as §1, §2

human CD33 H143A = target: T6, human CD33 H143A (human, UniProt P20138 18-364)
T6 construct: alanine scan clone, transfected HEK293-T
T6 sequence (P20138 18-364 H143A limits assumed): as the sequence (P20138 18-364 E63A limits assumed) above, with A46E, H126A counted along it
Experimental: as §1, §2

human CD33 R144A = target: T7, human CD33 R144A (human, UniProt P20138 18-364)
T7 construct: alanine scan clone, transfected HEK293-T
T7 sequence (P20138 18-364 R144A limits assumed): as the sequence (P20138 18-364 E63A limits assumed) above, with A46E, R127A counted along it
Experimental: as §1, §2

human CD33 P145A = target: T8, human CD33 P145A (human, UniProt P20138 18-364)
T8 construct: alanine scan clone, transfected HEK293-T
T8 sequence (P20138 18-364 P145A limits assumed): as the sequence (P20138 18-364 E63A limits assumed) above, with A46E, P128A counted along it
Experimental: as §1, §2

human CD33 I147A = target: T9, human CD33 I147A (human, UniProt P20138 18-364)
T9 construct: alanine scan clone, transfected HEK293-T
T9 sequence (P20138 18-364 I147A limits assumed): as the sequence (P20138 18-364 E63A limits assumed) above, with A46E, I130A counted along it
Experimental: as §1, §2

human CD33 I149A = target: T10, human CD33 I149A (human, UniProt P20138 18-364)
T10 construct: alanine scan clone, transfected HEK293-T
T10 sequence (P20138 18-364 I149A limits assumed): as the sequence (P20138 18-364 E63A limits assumed) above, with A46E, I132A counted along it
Experimental: as §1, §2

human CD33 T152A = target: T11, human CD33 T152A (human, UniProt P20138 18-364)
T11 construct: alanine scan clone, transfected HEK293-T
T11 sequence (P20138 18-364 T152A limits assumed): as the sequence (P20138 18-364 E63A limits assumed) above, with A46E, T135A counted along it
Experimental: as §1, §2

human CD33 P155A = target: T12, human CD33 P155A (human, UniProt P20138 18-364)
T12 construct: alanine scan clone, transfected HEK293-T
T12 sequence (P20138 18-364 P155A limits assumed): as the sequence (P20138 18-364 E63A limits assumed) above, with A46E, P138A counted along it
Experimental: as §1, §2

human CD33 S158A = target: T13, human CD33 S158A (human, UniProt P20138 18-364)
T13 construct: alanine scan clone, transfected HEK293-T
T13 sequence (P20138 18-364 S158A limits assumed): as the sequence (P20138 18-364 E63A limits assumed) above, with A46E, S141A counted along it
Experimental: as §1, §2

human CD33 E121A = target: T14, human CD33 E121A (human, UniProt P20138 18-364)
T14 construct: alanine scan clone, transfected HEK293-T
T14 sequence (P20138 18-364 E121A limits assumed): as the sequence (P20138 18-364 E63A limits assumed) above, with A46E, E104A counted along it
Experimental: as §1, §2

human CD33 P175A = target: T15, human CD33 P175A (human, UniProt P20138 18-364)
T15 construct: alanine scan clone, transfected HEK293-T
T15 sequence (P20138 18-364 P175A limits assumed): as the sequence (P20138 18-364 E63A limits assumed) above, with A46E, P158A counted along it
Experimental: as §1, §2

human CD33 L180A = target: T16, human CD33 L180A (human, UniProt P20138 18-364)
T16 construct: alanine scan clone, transfected HEK293-T
T16 sequence (P20138 18-364 L180A limits assumed): as the sequence (P20138 18-364 E63A limits assumed) above, with A46E, L163A counted along it
Experimental: as §1, §2

human CD33 T185A = target: T17, human CD33 T185A (human, UniProt P20138 18-364)
T17 construct: alanine scan clone, transfected HEK293-T
T17 sequence (P20138 18-364 T185A limits assumed): as the sequence (P20138 18-364 E63A limits assumed) above, with A46E, T168A counted along it
Experimental: as §1, §2

human CD33 L187A = target: T18, human CD33 L187A (human, UniProt P20138 18-364)
T18 construct: alanine scan clone, transfected HEK293-T
T18 sequence (P20138 18-364 L187A limits assumed): as the sequence (P20138 18-364 E63A limits assumed) above, with A46E, L170A counted along it
Experimental: as §1, §2

human CD33 P189A = target: T19, human CD33 P189A (human, UniProt P20138 18-364)
T19 construct: alanine scan clone, transfected HEK293-T
T19 sequence (P20138 18-364 P189A limits assumed): as the sequence (P20138 18-364 E63A limits assumed) above, with A46E, P172A counted along it
Experimental: as §1, §2

human CD33 H193A = target: T20, human CD33 H193A (human, UniProt P20138 18-364)
T20 construct: alanine scan clone, transfected HEK293-T
T20 sequence (P20138 18-364 H193A limits assumed): as the sequence (P20138 18-364 E63A limits assumed) above, with A46E, H176A counted along it
Experimental: as §1, §2

human CD33 S195A = target: T21, human CD33 S195A (human, UniProt P20138 18-364)
T21 construct: alanine scan clone, transfected HEK293-T
T21 sequence (P20138 18-364 S195A limits assumed): as the sequence (P20138 18-364 E63A limits assumed) above, with A46E, S178A counted along it
Experimental: as §1, §2

Sequence of human CD33 G58A (P20138 18-364 G58A limits assumed): as the sequence (P20138 18-364 E63A limits assumed) above, with G41A, A46E counted along it
Sequence of human CD33 Y59A (P20138 18-364 Y59A limits assumed): as the sequence (P20138 18-364 E63A limits assumed) above, with Y42A, A46E counted along it

B1: Refmab #6 (antibody, V domains shown)
VH: QVQLQQPGAEVVKPGASVKMSCKASGYTFTSYYIHWIKQTPGQGLEWVGVIYPGNDDISYNQKFQGKATLTADKSSTTAYMQLSSLTSEDSAVYYCAREVRLRYFDVWGQGTTVTVSS
VL: EIVLTQSPGSLAVSPGERVTMSCKSSQSVFFSSSQKNYLAWYQQIPGQSPRLLIYWASTRESGVPDRFTGSGSGTDFTLTISSVQPEDLAIYYCHQYLSSRTFGQGTKLEIK
notes: Full-length format is human IgG1 Fc silent (PG-LALA); also made as Fab; The alanine scan used IgG or Fab
With B1 the “Mean % WT Binding” value (human CD33 G58A) was 73.9 % WT binding, the “Mean % WT Binding” value (human CD33 Y59A) was 83.2 % WT binding and the “Mean % WT Binding” value (human CD33 E63A) was 90.9 % WT binding. The “Mean % WT Binding” value (human CD33 A65S) was 92.3 % WT binding, the “Mean % WT Binding” value (human CD33 I67A) was 108 % WT binding and the “Mean % WT Binding” value (human CD33 R69A) was 101 % WT binding. For the same binder, the “Mean % WT Binding” value (human CD33 A74S) was 94.9 % WT binding, the “Mean % WT Binding” value (human CD33 L92A) was 85.3 % WT binding and the “Mean % WT Binding” value (human CD33 P96A) was 92.3 % WT binding. For the same binder, the “Mean % WT Binding” value (human CD33 R98A) was 94.2 % WT binding, the “Mean % WT Binding” value (human CD33 V106A) was 125 % WT binding and the “Mean % WT Binding” value (human CD33 I47A) was 117 % WT binding. The “Mean % WT Binding” value (human CD33 R111A) was 102 % WT binding, the “Mean % WT Binding” value (human CD33 Y116A) was 5 % WT binding and the “Mean % WT Binding” value (human CD33 F118A) was 4.9 % WT binding.

B2: Refmab #6 (antibody, V domains shown)
VH: B1 VH
VL: B1 VL
notes: The alanine scan used IgG or Fab
In the case of B2, the “Mean % WT Binding” value (human CD33 Y127A) is reported as 42 % WT binding, the “Mean % WT Binding” value (human CD33 K130A) is reported as 119 % WT binding and the “Mean % WT Binding” value (human CD33 S131A) is reported as 10.8 % WT binding. For the same binder, the “Mean % WT Binding” value (human CD33 L141A) was 97.5 % WT binding, the “Mean % WT Binding” value (human CD33 T142A) was 91.6 % WT binding and the “Mean % WT Binding” value (human CD33 H143A) was 97.5 % WT binding. For the same binder, the “Mean % WT Binding” value (human CD33 R144A) was 104 % WT binding, the “Mean % WT Binding” value (human CD33 P145A) was 89.7 % WT binding and the “Mean % WT Binding” value (human CD33 I147A) was 65.4 % WT binding. For the same binder, the “Mean % WT Binding” value (human CD33 I149A) was 100 % WT binding, the “Mean % WT Binding” value (human CD33 T152A) was 92.7 % WT binding and the “Mean % WT Binding” value (human CD33 P155A) was 104 % WT binding. The “Mean % WT Binding” value (human CD33 S158A) was 95.2 % WT binding, the “Mean % WT Binding” value (human CD33 E121A) was 90.8 % WT binding and the “Mean % WT Binding” value (human CD33 P175A) was 98.6 % WT binding. For the same binder, the “Mean % WT Binding” value (human CD33 L180A) was 97.1 % WT binding, the “Mean % WT Binding” value (human CD33 T185A) was 117 % WT binding and the “Mean % WT Binding” value (human CD33 L187A) was 119 % WT binding. The “Mean % WT Binding” value (human CD33 P189A) was 103 % WT binding, the “Mean % WT Binding” value (human CD33 H193A) was 100 % WT binding and the “Mean % WT Binding” value (human CD33 S195A) was 113 % WT binding.

B3: Refmab #5 (antibody, V domains shown)
VH: QVQLVQSGAEVKKPGASVKVSCKASGYTFTNYDINWVRQAPGQGLEWIGWIYPGDGSTKYNEKFKAKATLTADTSTSTAYMELRSLRSDDTAVYYCASGYEDAMDYWGQGTTVTVSS
VL: DIQMTQSPSSLSASVGDRVTINCKASQDINSYLSWFQQKPGKAPKTLIYRANRLVDGVPSRFSGSGSGQDYTLTISSLQPEDFATYYCLQYDEFPLTFGGGTKVEIK
notes: as for B1
With B3 the “Mean % WT Binding” value (human CD33 G58A) was 112 % WT binding, the “Mean % WT Binding” value (human CD33 Y59A) was 205 % WT binding and the “Mean % WT Binding” value (human CD33 E63A) was 140 % WT binding. The “Mean % WT Binding” value (human CD33 A65S) was 175 % WT binding, the “Mean % WT Binding” value (human CD33 I67A) was 157 % WT binding and the “Mean % WT Binding” value (human CD33 R69A) was 164 % WT binding. For the same binder, the “Mean % WT Binding” value (human CD33 A74S) was 99 % WT binding, the “Mean % WT Binding” value (human CD33 L92A) was 127 % WT binding and the “Mean % WT Binding” value (human CD33 P96A) was 114 % WT binding. The “Mean % WT Binding” value (human CD33 R98A) was 134 % WT binding, the “Mean % WT Binding” value (human CD33 V106A) was 106 % WT binding and the “Mean % WT Binding” value (human CD33 I47A) was 117 % WT binding. The “Mean % WT Binding” value (human CD33 R111A) was 118 % WT binding, the “Mean % WT Binding” value (human CD33 Y116A) was 16 % WT binding and the “Mean % WT Binding” value (human CD33 F118A) was 11.1 % WT binding.

B4: Refmab #5 (antibody, V domains shown)
VH: B3 VH
VL: B3 VL
notes: as for B2
For B4, the “Mean % WT Binding” value (human CD33 Y127A) was 199 % WT binding, the “Mean % WT Binding” value (human CD33 K130A) was 271 % WT binding and the “Mean % WT Binding” value (human CD33 S131A) was 106 % WT binding. For the same binder, the “Mean % WT Binding” value (human CD33 L141A) was 94.5 % WT binding, the “Mean % WT Binding” value (human CD33 T142A) was 101 % WT binding and the “Mean % WT Binding” value (human CD33 H143A) was 128 % WT binding. For the same binder, the “Mean % WT Binding” value (human CD33 R144A) was 71 % WT binding, the “Mean % WT Binding” value (human CD33 P145A) was 82.9 % WT binding and the “Mean % WT Binding” value (human CD33 I147A) was 77.2 % WT binding. The “Mean % WT Binding” value (human CD33 I149A) was 112 % WT binding, the “Mean % WT Binding” value (human CD33 T152A) was 137 % WT binding and the “Mean % WT Binding” value (human CD33 P155A) was 140 % WT binding. For the same binder, the “Mean % WT Binding” value (human CD33 S158A) was 99.2 % WT binding, the “Mean % WT Binding” value (human CD33 E121A) was 105 % WT binding and the “Mean % WT Binding” value (human CD33 P175A) was 130 % WT binding. For the same binder, the “Mean % WT Binding” value (human CD33 L180A) was 118 % WT binding, the “Mean % WT Binding” value (human CD33 T185A) was 94 % WT binding and the “Mean % WT Binding” value (human CD33 L187A) was 144 % WT binding. The “Mean % WT Binding” value (human CD33 P189A) was 115 % WT binding, the “Mean % WT Binding” value (human CD33 H193A) was 119 % WT binding and the “Mean % WT Binding” value (human CD33 S195A) was 117 % WT binding.
